We go through one molecule from patent publication US20180022822A1, “NOVEL ANTI-FIBROBLAST ACTIVATION PROTEIN (FAP) BINDING AGENTS AND USES THEREOF” (Mabimmune Diagnostics AG, priority 2016, published 2018).

The target in experiment [1] is T1, rhFAP and FAP SB9 oligopeptidase homologues (rhDPPIV, rhPOP/PREP, rhDPP8, rhDPP9) (Homo sapiens, UniProt Q12884).
T1 construct: purchased Sino Biologicals 10464-H07H
T1 sequence (Q12884 26-760 limits assumed): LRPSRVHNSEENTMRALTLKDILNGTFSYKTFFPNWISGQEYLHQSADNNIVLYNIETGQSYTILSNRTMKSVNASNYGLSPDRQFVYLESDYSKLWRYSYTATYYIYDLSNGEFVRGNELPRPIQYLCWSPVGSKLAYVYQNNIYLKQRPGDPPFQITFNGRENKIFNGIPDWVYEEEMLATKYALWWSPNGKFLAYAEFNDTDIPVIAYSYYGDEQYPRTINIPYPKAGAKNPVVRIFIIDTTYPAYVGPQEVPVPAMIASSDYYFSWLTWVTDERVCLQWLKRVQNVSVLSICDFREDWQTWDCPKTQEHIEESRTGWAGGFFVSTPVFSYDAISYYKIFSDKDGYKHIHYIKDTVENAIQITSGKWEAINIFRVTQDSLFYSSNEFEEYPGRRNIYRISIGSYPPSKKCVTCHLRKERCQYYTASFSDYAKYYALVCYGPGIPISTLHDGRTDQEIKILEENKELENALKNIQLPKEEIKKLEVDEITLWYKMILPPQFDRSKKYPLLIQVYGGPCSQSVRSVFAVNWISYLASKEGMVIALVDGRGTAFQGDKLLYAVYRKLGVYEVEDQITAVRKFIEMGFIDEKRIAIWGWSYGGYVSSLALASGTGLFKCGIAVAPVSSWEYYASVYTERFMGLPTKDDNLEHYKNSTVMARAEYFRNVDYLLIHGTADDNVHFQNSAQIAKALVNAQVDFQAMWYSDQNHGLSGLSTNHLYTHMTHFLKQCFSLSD
Description: ELISA binding to SB9 oligopeptidase family enzymes. The note with it: sandwich ELISA affinity (EC50) assays. On the procedure: To determine the binding efficiency and inhibitory ability of NI-206.82C2 against other members of the SB9 oligopeptidase family that have sequence similarity to FAP, indirect ELISA and inihibiton assays were performed on active enzyme targets. Active recombinant human enzymes evaluated in this assay include: Fibroblast Activation Protein (FAP; Sino Biologicals, 10464-H07H), Dipeptidyl Peptidase IV (DPPIV, BPS Bioscience 80040), Dipeptidyl Peptidase 8 (DPP8, BPS Bioscience 80080), Dipeptidyl Peptidase 9 (DPP9, BPS Bioscience 80080), and Prolyl Oligopeptidase/Prolyl Endopeptidase (POP/PREP, BPS Bioscience 80105). Each recombinant peptidase was expressed with a purification tag, and attached to the 96 well ELISA plate using either a mouse anti-Histidine antibody (CloneTech), or a mouse anti-Glutathione S-transferase (GST, Sino Biologicals, 111213-MM02) tag antibody. Each enzyme was validated to bind and remained active on the ELISA plate using enzyme specific fluorogenic substrates. H-Gly-Pro-AMC (ATT Bioquest, 13450) was used to validate the presence and activity of DPP4, DPP9, and DPP8. […] Following a washing step, bound antibody was detected using 3,3′,5,5′-Tetramethylbenzidine (TMB) substrate. The reaction was stopped after 10 minutes by adding 2N H2SO4 and the resulting change in optical density was quantified using an ELISA plate reader at […] absorbance (FIG. 7 E).
Background: In an ELISA, binding on a coated surface is turned into a signal by an enzyme label.

In experiment [2] the test system is obstructive human coronary thrombi and aortic atherosclerotic plaque. Description: confocal immunofluorescence on human coronary thrombi and aortic atherosclerotic plaque. The note with it: Cy3 labelled antibody. As to the method: NI-206.82C2 was labelled with Cyanine 3 for fluorescent imaging (Cy3 conjugation kit: Innova Biosciences, 340-0030) and antibody labelling was validated using a spectophotometer. Cryosections from myocardial infarction causing obstructive human coronary thrombi (FIG. 14, A) and human aortic atherosclerotic plaque (FIG. 14, B) were fixed for 5 minutes in ice cold acetone and allowed to dry for 10 minutes before washing in PBS. The sections were then incubated for 1 hr at room temperature in 5% BSA in PBS, and then incubated with Cyanine 3 labelled antibodies overnight at 4° C., before washing three times in PBS before incubation with DAPI at 0.5 μg/mL. Sections were then washed three additional times in PBS and mounted in Lisbeth's mounting medium before imaging on a SP8 confocal microscope (Leica Microsystems).

The test system of experiment [3] is human blood plasma clotting. Briefly: rotational thromboelastometry (ROTEM, NATEM) of human blood plasma. On the procedure: Two batches of peripheral blood were taken from a single healthy subject in sodium citrate tubes and platelet-free blood plasma was prepared by centrifugation. Blood plasma from each tube was pooled and immediately aliquoted for storage at −80° C. The plasma has an FAP level of 130 ng/ml by ELISA. Plasma samples were treated with NI-206.82C2 (n=3) against FAP or 43A11 control (n=3) diluted in sterile saline and added to fresh fast thawed plasma such that the final concentration of antibody in the sample was 0.000667 nM, 0.00667 nM, 0.0667 nM, 0.667 nM 6.667 nM of plasma. Following 1 hr incubation with the antibody at 37° C., NATEM analysis was performed according to the manufacturer's instructions by using STAR-TEM reagent to observe the native blood clotting process after an incubation time with the antibodies of 1 h at 37° C. with the antibody before starting measurement. Statistical analysis was performed using a two-way ANOVA (*p<0.05, ** p<0.01, *** p<0.005, **** p<0.001).

For experiment [4], the system named is MC38 colorectal tumors. Briefly: orthotopic syngeneic MC38 colorectal cancer model, MRI. Format: in vivo, mouse. The note with it: 20 mg/kg i.p. every 72 hours, 5 cycles, versus PBS. As to the method:
[…] mice were anesthetized by isofluorane inhalation, and the hepatic portal vein was accessed by median laparotomy (from xiphoid 4 cm caudally). Mice were injected with 1 million murine MC38 colorectal cancer cells. The origin of these cell is described in Science 19 Sep. 1986. MC-38 tumors were allowed to form for 7 days before treatment. Mice were treated with either PBS or NI-206.82C2 (20 mg/kg by intraperitoneal injection) every 72 hours for 5 treatment cycles, before being anesthetized by isofluourane inhalation. Small animal MRI imaging was performed using a Bruker 4.7 Tesla MRI to aquire images of liver metastases. Tumor images were analyzed on Myrian Software (Intrasense) to quantify tumor metastases and cumulative tumor diameter overall tumor burden.

[5] abbreviates: increasing antibody concentrations.

B1: NI-206.82C2: human-derived recombinant anti-FAP antibody; VH SEQ ID NO: 2 or 4 (PIMC), VL SEQ ID NO: 6 (antibody, V domains shown)
VH: QVQLQQSGPGLVKPSQTLSLTCAISGDSVSSNSVTWNWIRQSPSRGLEWLGRTYYRSKWYNDYAVSVKGRITINPDTSKNQFYLQLKSVTPEDAAVYYCARDSSILYGDYWGQGTLVTVSS
VL: QAVLTQPSSLSASPGASASLTCTLPSGINVGTYRIFWFQQKPGSPPQYLLSYKSDSDNHQGSGVPSRFSGSKDASANAGILLISGLQSEDEADYYCMIWHSSAWVFGGGTKLTVL
B1: in experiment [1], the “binding selectivity for rhFAP over SB9 oligopeptidase homologues” value was “selectively binds to recombinant human FAP (rhFAP) but not FAP SB9 oligopeptidase homologues”. Further, the “binding to human coronary thrombi and aortic atherosclerotic plaque” value in experiment [2] is “binds”. Besides, the clot formation time entry in experiment [3] (0.000667-6.667 nM antibody) is “dose dependent prolongation”. Besides, in experiment [3] (setting [5]), the clot rigidity entry is “reduces”, the maximum clot elasticity result was “decreases” and the maximum clotting angle result is reported as “reduces”. In experiment [4], the cumulative tumor diameter entry is “reduced” and the number of metastases result is “reduced”.
